Source: US20140112936A1

Columns and labels:
[1] = molecular target: gp41-inter (HIV-1 clade A isolate 92UG037.8); assay: SPR, gp41-inter immobilized on CM5 chip, Fab as analyte, 1:1 Langmuir
[2] = molecular target: GCN4-gp41-inter (HIV-1 clade A isolate 92UG037.8 (gp41 part)); assay: SPR, GCN4-gp41-inter immobilized on CM5 chip, Fab as analyte, 1:1 Langmuir
[3] = molecular target: GCN4-gp41-inter (HIV-1 clade A isolate 92UG037.8 (gp41 part)); assay: SPR, GCN4-gp41-inter immobilized on CM5 chip, Fab as analyte, 1:1 Langmuir (single curve)
[4] = molecular target: gp41-inter (HIV-1 clade A isolate 92UG037.8); assay: SPR, gp41-inter immobilized on CM5 chip, Fab as analyte, 1:1 Langmuir (single curve)

2F5 Fab
Kd [1]: 0.415 nM
koff [1]: 0.00019 s⁻¹
kon [1]: 457000 M⁻¹ s⁻¹
Kd [2]: 0.317 nM
koff [2]: 0.000158 s⁻¹
kon [2]: 498000 M⁻¹ s⁻¹

Z13e1 Fab
Kd [1]: 97.7 nM
koff [1]: 0.00548 s⁻¹
kon [1]: 56000 M⁻¹ s⁻¹
Kd [2]: 34 nM
koff [2]: 0.00289 s⁻¹
kon [2]: 85000 M⁻¹ s⁻¹

4E10 Fab
Kd [3]: 4.86 nM
koff [3]: 0.000237 s⁻¹
kon [3]: 48800 M⁻¹ s⁻¹
Kd [4]: 8.85 nM
koff [4]: 0.000235 s⁻¹
kon [4]: 26600 M⁻¹ s⁻¹
